We go through 4 molecules from paper PMC11574021, “CEP192 localises mitotic Aurora-A activity by priming its interaction with TPX2” (The EMBO Journal, 2024).

Where “and” joins values, the source holds several entries; their conditions need not be identical. Equal values may be shown once. Where no end group is shown, it is not given here. FAM = 5(6)-carboxyfluorescein

One assay concerns the target Aurora-A. The conditions noted are these: fluorescence binding; ref Park et al. (2023) Figure 3B; cited from earlier work. An excerpt:
page 11: cycle control) in these cell lines is still useful. […] As for combined depletion of CEP192 and TPX2, this was very toxic in both U251 and RPE1 cells, unsurprising given that both proteins are essential for proliferation.

Assay [1] concerns the target T1, phosphorylated Aurora-A^CAKD (Aurora-A 122–403 C290A C393A, not co-expressed with lambda phosphatase) (human, UniProt O14965 122-403, C290A | C393A, phosphorylated (sites of this preparation not printed in the text shown)).
T1 sequence (looked up): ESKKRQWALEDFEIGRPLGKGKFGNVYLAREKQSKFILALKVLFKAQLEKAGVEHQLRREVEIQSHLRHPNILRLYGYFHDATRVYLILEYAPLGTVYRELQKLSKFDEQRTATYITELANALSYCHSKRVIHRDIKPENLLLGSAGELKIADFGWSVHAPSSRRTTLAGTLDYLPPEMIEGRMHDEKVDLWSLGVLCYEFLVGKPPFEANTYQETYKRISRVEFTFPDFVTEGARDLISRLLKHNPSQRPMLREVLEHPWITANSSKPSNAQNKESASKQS
Nature of the assay: cell-based or functional assay.

Assay [2] concerns the target T2, Aurora-A^CAKD (Aurora-A kinase domain, aa 122–403 C290A, C393A), unphosphorylated (human, UniProt O14965 122-403, C290A | C393A).
T2 construct: Aurora-A kinase domain, human, residues 122-403, variant lacking surface cysteines; also called Aurora-A 122–403 C290A C393A; unphosphorylated Aurora-A^CAKD; source: E. coli RIL, co-expressed with lambda phosphatase, purified (HisTrap, TEV cleavage, SEC); not shown: His6, N-terminal, cleaved
T2 sequence (looked up): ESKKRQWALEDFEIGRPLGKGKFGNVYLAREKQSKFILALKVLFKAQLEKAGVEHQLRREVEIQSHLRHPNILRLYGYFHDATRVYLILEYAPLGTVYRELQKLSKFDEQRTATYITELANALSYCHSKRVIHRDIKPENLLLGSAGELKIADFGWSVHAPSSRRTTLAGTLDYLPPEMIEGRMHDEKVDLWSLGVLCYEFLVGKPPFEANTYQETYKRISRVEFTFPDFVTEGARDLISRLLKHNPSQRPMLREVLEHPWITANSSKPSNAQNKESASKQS
Nature of the assay: ITC; 250 μM Aurora-A in the syringe, 25 μM CEP192 construct in the cell; 25 °C; 20 mM tris pH 7.5, 200 mM NaCl, 10% glycerol, 5 mM MgCl2. Particulars: both partners purified. On the technique in general: Isothermal titration calorimetry measures the heat released or taken up as one component is titrated into another.

Assay [3] has as its target T1, phosphorylated Aurora-A^CAKD (Aurora-A …). Described as above. The conditions noted are these: both partners purified.
Assay [4] deals with T2, Aurora-A^CAKD (Aurora-A kinase domain, …). Nature of the assay: fluorescence polarisation; competition: 25 μM Aurora-A kinase domain preincubated with 100 nM FAM-TACC3 522-536, CEP192 competitor serially diluted; 25 mM HEPES pH 7.5, 150 mM NaCl, 2 mM DTT, 5 mM MgCl2, 0.01% Tween 20. Particulars: both partners purified. In general terms: Fluorescence polarisation rises when a labelled molecule tumbles more slowly, as on binding a larger partner.

Assay [5] shares this target. Nature of the assay: fluorescence polarisation; competition: 10 μM unphosphorylated Aurora-A^CAKD preincubated with 100 nM FAM-TPX2 7-43, CEP192 competitor serially diluted; 25 mM HEPES pH 7.5, 150 mM NaCl, 2 mM DTT, 5 mM MgCl2, 0.01% Tween 20. Particulars: both partners purified.
The target is the same in assay [6]. The assay can be described thus: fluorescence polarisation; direct fluorescence anisotropy: Aurora-A diluted across the plate, 50 nM tracer FAM-CEP192 501–533; 25 mM HEPES pH 7.5, 150 mM NaCl, 2 mM DTT, 5 mM MgCl2, 0.01% Tween 20; 1 h at room temperature. Particulars: both partners purified.
Assay [7] has as its target T1, phosphorylated Aurora-A^CAKD (Aurora-A …). The description is as above. Particulars: both partners purified.
In assay [8] the target is T3, Aurora-A^M7KD (Aurora-A 122–403 D274N C290A C393A N332A Q335A T347A D350A) (human, UniProt O14965 122-403, D274N | C290A | C393A | N332A | Q335A | T347A | D350A).
T3 construct: Aurora-A kinase domain, human, residues 122-403, with crystal-contact mutations in the C-lobe; also called Aurora-A^M7KD-D; Aurora^M7KD; source: E. coli, purified; not shown: His6, N-terminal, cleaved
T3 sequence (looked up): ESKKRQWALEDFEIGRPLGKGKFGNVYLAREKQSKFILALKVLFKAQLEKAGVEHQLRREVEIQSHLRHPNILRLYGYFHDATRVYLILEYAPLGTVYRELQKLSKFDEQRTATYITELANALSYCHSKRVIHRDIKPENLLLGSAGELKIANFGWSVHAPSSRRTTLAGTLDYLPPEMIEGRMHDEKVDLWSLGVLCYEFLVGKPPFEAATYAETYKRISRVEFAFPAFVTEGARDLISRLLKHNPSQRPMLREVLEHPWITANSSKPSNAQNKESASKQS
The assay is described as above. Particulars: both partners purified.

Assay [9] deals with His-tagged Aurora-A 122-403 or full-length (1-403). Nature of the assay: Pull-down of Aurora-A by GST-tagged CEP192. Format: binding, human. The conditions noted are these: Aurora-A 122-403 and 1-403, western blot. The method, then:
GST-tagged CEP192 constructs were overexpressed in LB and purified on glutathione resin using standard methods. Tagged proteins were eluted in 100 mM TRIS pH 7.5, 500 mM NaCl, 1 mM DTT, 10% Glycerol, 10 mM reduced glutathione, before dialysis in elution buffer without glutathione and storage at −80 °C. About 250 μg of GST-tagged CEP192 constructs or GST as a control were immobilised on 50 μl of glutathione resin (GE healthcare) per sample equilibrated in pull-down buffer (50 mM tris pH 7.5, 300 mM NaCl, 1 mM DTT, 5 mM magnesium chloride, 10% glycerol, 0.1% Tween 20). After 60 min of immobilisation the beads were washed three times in 900 μl of binding buffer to remove any excess protein. About 35 μg of His-tagged Aurora-A 122–403 or full-length protein (1–403) was added to samples of immobilised truncation or GST control. These were left to bind for 60 min on the roller. The beads were pelleted and washed three times in 900 μl of binding buffer. The resin was resuspended in 100 μl of SDS loading dye. After separation on an SDS-PAGE gel, these were transformed onto nitrocellulose membranes before probing with anti-GST and anti-His primary antibodies.
Background: Immunoblotting shows a protein as a band on a membrane.

What is called Kd is the equilibrium constant for the complex coming apart. In the case of “FAM-CEP192 506-536: labelled peptide of Park et al 2023”, the Kd at Aurora-A was 700 nM.

B1: human CEP192 468–533 (domain or fragment, UniProt Q8TEP8 468-533, looked up)
chain: PQSVVYQNEEGRWVTDLAYYTSFNSKQNLNVSLSDEMNEDFRSGSEAFDLIAQDEEEFNKEHQFIQ
notes: also called CEP192_(506-527_F); source: E. coli B834 RIL, purified (HisTrap, TEV cleavage, SEC); for crystallisation co-expressed with Aurora-A^M7KD and co-purified; not shown: His6, N-terminal, cleaved; SUMO, N-terminal, cleaved
By IC50 is commonly meant the midpoint of a concentration-inhibition curve. Consider B1, for which the “ADP-Glo, 10 nM phosphorylated Aurora-A^CAKD with kemptide: IC50 of partial inhibition of kinase activity” value in assay [1] amounted to 18 nM. Also, the Kd is 80.6 nM in assay [2] and 134 nM in assay [3]. For the same molecule, the half-maximal inhibitory concentration (IC50) was 5000 nM in [4] and 3700 nM in assay [5].

B2: FAM-CEP192 501–533 (peptide, UniProt Q8TEP8 501-533, looked up)
peptide: {FAM}-SDEMNEDFRSGSEAFDLIAQDEEEFNKEHQFIQ
notes: Made on Rink amide resin and labelled on resin after synthesis, so N-terminal label and C-terminal amide are likely; MS data of the peptides are in the source data; source: synthetic peptide
Consider B2, for which the Kd is 420 nM and 1170 nM in assay [6]; 370 nM in assay [7]; 1250 nM in assay [8].

B3: CEP192 405-649: GST-tagged CEP192 fragment 405-649 (protein, UniProt Q8TEP8 405-649, looked up, fragment)
chain: HMDGCLDTETPTVSIQENVDVASLKPISDSGINFTDAIWSPTCERRTCECHESIEKNKDKTDLPQSVVYQNEEGRWVTDLAYYTSFNSKQNLNVSLSDEMNEDFRSGSEAFDLIAQDEEEFNKEHQFIQEENIDAHNTSVALGDTSWGATINYSLLRKSRSTSDLDKDDASYLRLSLGEFFAQRSEALGCLGGGNNVKRPSFGYFIRSPEKREPIALIRKSDVSRGNLEKEMAHLNHDLYSGDLN
modifications: GST tag
For B3, the “co-precipitation of Aurora-A” value in assay [9] was “able to interact significantly with Aurora”.
